Measured values published in patent US20260274955A1 (JANUX THERAPEUTICS, published 2026).
Where two headings read alike, the source gives them in different places. No end group written: not given here.

T1: Peptide-86 (cysteine pairing not given here; also: biotinylated, site not given here)
T1 construct: optimization library of Peptide-39
T1 peptide: YCEGHLPEYIQKCL

T2: Peptide-73 (cysteine pairing not given here; also: biotinylated, site not given here)
T2 construct: optimization library of Peptide-39
T2 peptide: YCEGHAPEYIAKCL

T3: Peptide-39 (cysteine pairing not given here; also: biotinylated, site not given here)
T3 construct: synthetic peptide
T3 peptide: YCAGHAWQYINKCL

T4: Peptide-78 (cysteine pairing not given here; also: biotinylated, site not given here)
T4 construct: optimization library of Peptide-39
T4 peptide: YCEGHLPEYREKCL

T5: Peptide-79 (cysteine pairing not given here; also: biotinylated, site not given here)
T5 construct: optimization library of Peptide-39
T5 peptide: YCEGHLPEYLAKCL

T6: Peptide-72 (cysteine pairing not given here; also: biotinylated, site not given here)
T6 construct: optimization library of Peptide-39
T6 peptide: YCEGHLPEYIEKCL

T7: Peptide-84 (cysteine pairing not given here; also: biotinylated, site not given here)
T7 construct: optimization library of Peptide-39
T7 peptide: YCEGHLPEYRNKCL

B1: Peptide-26 (peptide)
peptide: IYWCPIDRWNDCYN
modifications: cysteine pairing not given here; also: biotinylated, site not given here
B2: Phage-1664 (peptide)
peptide: IHLCHWVPWIKCSH
B3: Peptide-24 (peptide)
peptide: IDWCPLHLWHECYH
modifications: cysteine pairing not given here; also: biotinylated, site not given here
B4: Peptide-36 (peptide)
peptide: YCAGHSPINIGKCL
modifications: cysteine pairing not given here; also: biotinylated, site not given here
B5: Peptide-118 (peptide)
peptide: GYCHYWGDMVMWCG
modifications: cysteine pairing not given here; also: biotinylated, site not given here
notes: biotinylated for capture in BLI
B6: anti-CD28 Fab (Fab, V domains shown)
VH: QVQLVQSGAEVKKPGASVKVSCKASGYTFTSYYIHWVRQAPGQGLEWIGSIYPGNVNTNYNEKFKDRATLTVDTSISTAYMELSRLRSDDTAVYFCTRSHYGLDWNFDVWGQGTTVTVSS
VL: not shown
B7: Peptide-25 (peptide)
peptide: VPWCQIISGLECLT
modifications: cysteine pairing not given here; also: biotinylated, site not given here
B8: Peptide-31 (peptide)
peptide: ACDTYFAGMINECF
modifications: cysteine pairing not given here; also: biotinylated, site not given here
B9: Phage-1513 (peptide)
peptide: IDWCPTAGWTYCWF
B10: Peptide-44 (peptide)
peptide: SCAAGASYAWPYCL
modifications: cysteine pairing not given here; also: biotinylated, site not given here
notes: synthetic peptide
B11: Peptide-57 (peptide)
peptide: SCAAGASYAWPACL
B12: Peptide-51 (peptide)
peptide: ACAAGASYAWPYCL
B13: Peptide-58 (peptide)
peptide: SCAAGASYAWPYCA
B14: Peptide-53 (peptide)
peptide: SCAAGAAYAWPYCL
B15: Peptide-44 (peptide)
peptide: SCAAGASYAWPYCL
modifications: cysteine pairing not given here; also: biotinylated, site not given here
B16: Peptide-39 (peptide)
peptide: YCAGHAWQYINKCL
modifications: cysteine pairing not given here; also: biotinylated, site not given here
B17: Peptide-1 (peptide)
peptide: MDWCPRDLWVHCFA
modifications: cysteine pairing not given here; also: biotinylated, site not given here
B18: Peptide-23 (peptide)
peptide: IDWCPRYLWDECYN
modifications: cysteine pairing not given here; also: biotinylated, site not given here

How the values were obtained:
Ab-1 [1] = molecular target: T8, Ab-1; assay: BLI (Octet), 200 nM peptide, 100 nM Ab-1;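 on t1/2: association and dissociation phases tracked in real time, with kinetics fitted to a 1:1 interaction model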
T8 construct: also called anti-CD28 scFv harbored in Ab-1

Ab-1 [2] = molecular target: T8, Ab-1; assay: competition ELISA, peptide titrated vs 1 nM Ab-1 binding plate-bound CD28
Ab-1 [3] = molecular target: T8, Ab-1; assay: binding ELISA, peptide captured, Ab-1 titrated
[4] = molecular target: T9, anti-CD28 scFv (SEQ ID NO: 35); assay: phage binding ELISA, scFv on plate, CD28 as competitor
T9 construct: also called anti-CD28 scFv wt Vh-linker-Vl

[5] = molecular target: T10, anti-CD28 Fab (SEQ ID NOs: 202, 203); assay: binding ELISA, peptide captured, anti-CD28 Fab titrated
T10 construct: biotinylated when captured in the phage ELISAs

[6] = molecular target: T11, anti-CD28 scFv (SEQ ID NO: 35); assay: BLI (Octet)
T11 construct: also called anti-CD28 scFv wt Vh-linker-Vl; human anti-CD28 scFv

Peptide-86 = molecular target: T1, Peptide-86; assay: BLI, peptide on sensor, Fab in solution, 1:1 model
Peptide-73 = molecular target: T2, Peptide-73; assay: BLI, peptide on sensor, Fab in solution, 1:1 model
Peptide-39 = molecular target: T3, Peptide-39; assay: BLI, peptide on sensor, Fab in solution, 1:1 model
Peptide-78 = molecular target: T4, Peptide-78; assay: BLI, peptide on sensor, Fab in solution, 1:1 model
Peptide-79 = molecular target: T5, Peptide-79; assay: BLI, peptide on sensor, Fab in solution, 1:1 model
Peptide-72 = molecular target: T6, Peptide-72; assay: BLI, peptide on sensor, Fab in solution, 1:1 model
Peptide-84 = molecular target: T7, Peptide-84; assay: BLI, peptide on sensor, Fab in solution, 1:1 model
[7] = molecular target: T12, anti-CD28 scFv wt Vh-linker-Vl (biotinylated (site not stated)); assay: phage ELISA on captured scFv, CD28 as competitor
T12 construct: captured on neutravidin plates

anti-CD28 Fab = molecular target: B6; assay: competition ELISA, alanine scan of Peptide-44, Fab binding plate-bound CD28
[8] = molecular target: T10, anti-CD28 Fab (SEQ ID NOs: 202, 203); assay: binding ELISA, peptide captured, anti-CD28 Fab titrated; remark: listed apart in the source
Ab-1 [9] = molecular target: T8, Ab-1; assay: BLI (Octet), 200 nM peptide, 100 nM Ab-1; remark: listed apart in the source;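 on t1/2: association and dissociation phases tracked in real time, with kinetics fitted to a 1:1 interaction model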
Ab-1 [10] = molecular target: T8, Ab-1; assay: binding ELISA, peptide captured, Ab-1 titrated; remark: listed apart in the source
Ab-1 [11] = molecular target: T8, Ab-1; assay: BLI (Octet), peptide on sensor, Ab-1 titrated, 1:1 model
Ab-1 [12] = molecular target: T8, Ab-1; assay: competition ELISA, peptide titrated vs 1 nM Ab-1 binding plate-bound CD28; remark: listed apart in the source
Ab-1 [13] = molecular target: T8, Ab-1; assay: BLI (Octet), 20 nM peptide, 100 nM Ab-1
Ab-1 [14] = molecular target: T8, Ab-1; assay: BLI (Octet), peptide on sensor, Ab-1 titrated, 1:1 model; remark: listed apart in the source

## B1
Ab-1 [1]
  Octet signal (200 nM peptide): 0.705
Ab-1 [2]
  IC50: 410 nM
Ab-1 [3]
  EC50: 7.6 nM

## B2
[4]
  CD28 scFv signal in presence of CD28: 2.51

## B3
Ab-1 [1]
  Octet signal (200 nM peptide): 0.838
Ab-1 [2]
  IC50: 1520 nM
Ab-1 [3]
  EC50: 13.3 nM

## B4
[5]
  EC50: 337 nM

## B5
[6]
  binding result: binds

## B6
Peptide-86
  Kd: 40.2 nM
  koff: 0.0115 s⁻¹
  kon: 286000 M⁻¹ s⁻¹
  t½: 1 min
Peptide-73
  Kd: 831 nM
  koff: 0.028 s⁻¹
  kon: 33700 M⁻¹ s⁻¹
  t½: 0.4 min
Peptide-39
  Kd: 2020 nM
  koff: 0.0202 s⁻¹
  kon: 10000 M⁻¹ s⁻¹
  t½: 0.6 min
Peptide-78
  Kd: 141 nM
  koff: 0.0191 s⁻¹
  kon: 135000 M⁻¹ s⁻¹
  t½: 0.6 min
Peptide-79
  Kd: 44.7 nM
  koff: 0.0118 s⁻¹
  kon: 264000 M⁻¹ s⁻¹
  t½: 1 min
Peptide-72
  Kd: 926 nM
  koff: 0.0239 s⁻¹
  kon: 25800 M⁻¹ s⁻¹
  t½: 0.5 min
Peptide-84
  Kd: 110 nM
  koff: 0.0138 s⁻¹
  kon: 125000 M⁻¹ s⁻¹
  t½: 0.8 min

## B7
Ab-1 [1]
  Octet signal (200 nM peptide): 0.166
Ab-1 [2]
  IC50: > 100000 nM
Ab-1 [3]
  EC50: 54.9 nM

## B8
[5]
  EC50: 97 nM

## B9
[7]
  CD28 scFv signal in presence of CD28: 0.075

## B10
anti-CD28 Fab
  IC50: 7.89 mM

## B11
anti-CD28 Fab
  IC50: 12.9 mM

## B12
anti-CD28 Fab
  IC50: 21 mM

## B13
anti-CD28 Fab
  IC50: 76.4 mM

## B14
anti-CD28 Fab
  IC50: 7.42 mM

## B15
[8]
  EC50: 18.9 nM
[5]
  EC50: 54 nM

## B16
[5]
  EC50: 49 nM

## B17
Ab-1 [9]
  Octet signal: 2.03
  t1/2: 9.8 min
Ab-1 [10]
  EC50: 4 nM
Ab-1 [11]
  Kd: 15.1 nM
  t1/2: 15.5 min
[5]
  EC50: 490 nM
Ab-1 [1]
  Octet signal (200 nM peptide): 1.8
Ab-1 [2]
  IC50: 200 nM
Ab-1 [3]
  EC50: 1 nM
Ab-1 [12]
  IC50: 60 nM
Ab-1 [13]
  Octet signal (20 nM peptide): 0.509

## B18
Ab-1 [14]
  Kd: 16 nM
  t1/2: 9.1 min
Ab-1 [1]
  Octet signal (200 nM peptide): 1.52
Ab-1 [2]
  IC50: 140 nM
Ab-1 [3]
  EC50: 2.1 nM
